These results are taken from paper PMC8666675, “Structural basis of RNA polymerase recycling by the Swi2/Snf2 family of ATPase RapA in Escherichia coli” (The Journal of Biological Chemistry, 2021).

One test deals with T1, E. coli RNAP β subunit (E. coli, UniProt P0A8V2 1-1342).
T1 construct: RNA polymerase β subunit, E. coli; Stood in the assay as a subunit of the core enzyme m2, not alone; source: E. coli BL21(DE3), pVS10, purified as part of the RNAP core enzyme
In words: cryo-EM structure; EC-RapA: 4 μM RNAP core enzyme with DNA/RNA scaffold, then 5 μM RapA, 22 °C, storage buffer (10 mM Hepes pH 7.5, 50 mM NaCl, 0.1 mM EDTA, 5 mM DTT); gel filtration; 1 mM AMPPNP and CMPCPP; BS3 cross-linked; 3.3 Å. The conditions noted are these: both partners purified. (Size exclusion chromatography separates by hydrodynamic size, large species first.)

Another test has as its target T2, E. coli RNAP β′ subunit (E. coli, UniProt P0A8T7 1-1407).
T2 construct: RNA polymerase β′ subunit, E. coli; Stood in the assay as a subunit of the core enzyme m2, not alone; source: E. coli BL21(DE3), pVS10, purified as part of the RNAP core enzyme
The description is as above. The following applies: both partners purified.

T2 sequence (P0A8T7 whole entry): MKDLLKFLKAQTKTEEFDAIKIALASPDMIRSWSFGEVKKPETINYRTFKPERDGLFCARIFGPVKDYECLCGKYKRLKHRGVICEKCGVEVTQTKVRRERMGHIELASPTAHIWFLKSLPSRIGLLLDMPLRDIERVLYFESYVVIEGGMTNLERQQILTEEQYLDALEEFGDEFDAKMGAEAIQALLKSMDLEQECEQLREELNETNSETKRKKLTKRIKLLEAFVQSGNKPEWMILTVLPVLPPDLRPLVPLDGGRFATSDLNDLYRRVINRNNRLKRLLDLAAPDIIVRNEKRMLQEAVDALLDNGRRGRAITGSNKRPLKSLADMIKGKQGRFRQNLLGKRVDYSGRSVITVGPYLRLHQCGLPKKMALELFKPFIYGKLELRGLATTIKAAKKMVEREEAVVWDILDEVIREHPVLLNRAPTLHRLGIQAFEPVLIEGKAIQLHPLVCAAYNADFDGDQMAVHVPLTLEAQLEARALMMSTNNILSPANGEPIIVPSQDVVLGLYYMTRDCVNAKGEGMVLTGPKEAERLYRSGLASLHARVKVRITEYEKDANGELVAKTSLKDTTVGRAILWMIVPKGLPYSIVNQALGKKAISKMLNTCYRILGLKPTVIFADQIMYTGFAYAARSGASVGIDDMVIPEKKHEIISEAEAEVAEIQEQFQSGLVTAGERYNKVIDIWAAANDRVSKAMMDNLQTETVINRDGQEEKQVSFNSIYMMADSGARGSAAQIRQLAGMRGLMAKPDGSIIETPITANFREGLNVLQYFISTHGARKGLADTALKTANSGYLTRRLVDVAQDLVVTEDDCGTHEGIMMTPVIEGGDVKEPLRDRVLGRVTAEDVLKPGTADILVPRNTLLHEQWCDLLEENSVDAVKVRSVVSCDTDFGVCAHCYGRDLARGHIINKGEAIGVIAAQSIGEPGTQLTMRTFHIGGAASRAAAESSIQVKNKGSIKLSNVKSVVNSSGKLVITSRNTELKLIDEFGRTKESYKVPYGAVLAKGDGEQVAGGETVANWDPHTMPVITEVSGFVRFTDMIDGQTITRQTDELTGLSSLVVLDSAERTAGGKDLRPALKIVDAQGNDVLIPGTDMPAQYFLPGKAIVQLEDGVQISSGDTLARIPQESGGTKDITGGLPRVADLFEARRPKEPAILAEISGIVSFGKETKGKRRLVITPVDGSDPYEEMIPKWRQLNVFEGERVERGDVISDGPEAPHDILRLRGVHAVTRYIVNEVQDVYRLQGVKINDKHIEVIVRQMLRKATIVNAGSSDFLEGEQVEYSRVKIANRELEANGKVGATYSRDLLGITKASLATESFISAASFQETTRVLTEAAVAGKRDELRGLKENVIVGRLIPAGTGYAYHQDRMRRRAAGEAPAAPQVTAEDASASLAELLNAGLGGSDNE
T1 sequence (P0A8V2 whole entry): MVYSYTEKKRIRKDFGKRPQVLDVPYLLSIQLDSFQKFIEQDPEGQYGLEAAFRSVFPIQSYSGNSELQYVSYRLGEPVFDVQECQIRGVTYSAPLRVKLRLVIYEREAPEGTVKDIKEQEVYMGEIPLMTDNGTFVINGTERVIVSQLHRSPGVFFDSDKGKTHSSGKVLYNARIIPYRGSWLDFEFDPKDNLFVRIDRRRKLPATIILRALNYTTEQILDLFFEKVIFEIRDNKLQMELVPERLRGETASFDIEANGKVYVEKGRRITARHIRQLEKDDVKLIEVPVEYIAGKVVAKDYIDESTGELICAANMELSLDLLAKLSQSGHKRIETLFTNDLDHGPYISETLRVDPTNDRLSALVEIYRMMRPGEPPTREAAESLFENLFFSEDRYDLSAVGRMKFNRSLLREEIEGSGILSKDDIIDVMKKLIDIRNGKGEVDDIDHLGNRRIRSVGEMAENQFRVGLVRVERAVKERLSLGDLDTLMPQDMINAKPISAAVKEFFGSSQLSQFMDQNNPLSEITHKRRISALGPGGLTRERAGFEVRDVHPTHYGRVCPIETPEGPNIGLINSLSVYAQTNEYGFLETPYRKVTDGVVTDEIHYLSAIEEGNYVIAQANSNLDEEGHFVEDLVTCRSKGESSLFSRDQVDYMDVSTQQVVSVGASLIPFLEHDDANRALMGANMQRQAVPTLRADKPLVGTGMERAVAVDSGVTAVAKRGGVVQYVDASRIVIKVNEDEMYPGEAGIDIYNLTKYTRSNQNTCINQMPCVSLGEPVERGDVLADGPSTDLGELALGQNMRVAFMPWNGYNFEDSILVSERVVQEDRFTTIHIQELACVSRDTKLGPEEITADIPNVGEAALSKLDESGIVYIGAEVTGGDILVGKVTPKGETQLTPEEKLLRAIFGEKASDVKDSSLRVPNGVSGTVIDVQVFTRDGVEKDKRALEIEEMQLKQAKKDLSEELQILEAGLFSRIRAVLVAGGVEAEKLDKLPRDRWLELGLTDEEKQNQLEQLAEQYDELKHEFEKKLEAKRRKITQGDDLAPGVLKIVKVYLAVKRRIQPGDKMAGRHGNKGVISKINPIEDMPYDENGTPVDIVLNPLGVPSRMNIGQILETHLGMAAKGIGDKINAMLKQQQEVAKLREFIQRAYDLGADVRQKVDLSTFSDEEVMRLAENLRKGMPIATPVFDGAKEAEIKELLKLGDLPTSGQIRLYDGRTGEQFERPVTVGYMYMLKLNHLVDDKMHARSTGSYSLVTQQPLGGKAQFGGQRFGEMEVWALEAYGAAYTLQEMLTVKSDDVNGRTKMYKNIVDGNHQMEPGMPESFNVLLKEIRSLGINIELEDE

B1: E. coli RapA protein (enzyme, UniProt P60240 1-968, looked up)
chain: MPFTLGQRWISDTESELGLGTVVAVDARTVTLLFPSTGENRLYARSDSPVTRVMFNPGDTITSHDGWQMQVEEVKEENGLLTYIGTRLDTEESGVALREVFLDSKLVFSKPQDRLFAGQIDRMDRFALRYRARKYSSEQFRMPYSGLRGQRTSLIPHQLNIAHDVGRRHAPRVLLADEVGLGKTIEAGMILHQQLLSGAAERVLIIVPETLQHQWLVEMLRRFNLRFALFDDERYAEAQHDAYNPFDTEQLVICSLDFARRSKQRLEHLCEAEWDLLVVDEAHHLVWSEDAPSREYQAIEQLAEHVPGVLLLTATPEQLGMESHFARLRLLDPNRFHDFAQFVEEQKNYRPVADAVAMLLAGNKLSNDELNMLGEMIGEQDIEPLLQAANSDSEDAQSARQELVSMLMDRHGTSRVLFRNTRNGVKGFPKRELHTIKLPLPTQYQTAIKVSGIMGARKSAEDRARDMLYPERIYQEFEGDNATWWNFDPRVEWLMGYLTSHRSQKVLVICAKAATALQLEQVLREREGIRAAVFHEGMSIIERDRAAAWFAEEDTGAQVLLCSEIGSEGRNFQFASHMVMFDLPFNPDLLEQRIGRLDRIGQAHDIQIHVPYLEKTAQSVLVRWYHEGLDAFEHTCPTGRTIYDSVYNDLINYLASPDQTEGFDDLIKNCREQHEALKAQLEQGRDRLLEIHSNGGEKAQALAESIEEQDDDTNLIAFAMNLFDIIGINQDDRGDNMIVLTPSDHMLVPDFPGLSEDGITITFDREVALAREDAQFITWEHPLIRNGLDLILSGDTGSSTISLLKNKALPVGTLLVELIYVVEAQAPKQLQLNRFLPPTPVRMLLDKNGNNLAAQVEFETFNRQLNAVNRHTGSKLVNAVQQDVHAILQLGEAQIEKSARALIDAARNEADEKLSAELSRLEALRAVNPNIRDDELTAIESNRQQVMESLDQAGWRLDALRLIVVTHQ
notes: RapA, Swi2/Snf2 family ATPase of E. coli, full-length; NTD is residues 1-109; In the EC-RapA sample the complex was cross-linked with BS3; also called τ factor
For B1, the binding result with E. coli RNAP β subunit and in the test with E. coli RNAP β′ subunit was “binds” each time.
